Measurements reported in patent publication US20100143268A1, “Formulations for Delivery Via Pressurised Metered Dose Inhalers Comprising an Essential Oil as Suspension Stabiliser” (priority 2006, published 2010).

How the values were obtained:
[1] = Tong et al, Pharm. Res. (2001) 18, 852-858; cited from earlier work
[2] = Integrity of insulin by GPC, HPLC, circular dichroism and fluorescence spectroscopy; type: physicochemical
Description: The formulations were also assessed for the integrity of insulin using gel permeation chromatography (GPC), high performance liquid chromatography (HPLC), circular dichroism and fluorescence spectroscopy.

Compound	aqueous solubility [1]	chemical degradation of insulin during the formulation process ([2]; GPC and HPLC chromatograms compared to standard insulin)	secondary structures of insulin after processing ([2]; far-UV circular dichroism, from the nanoparticles after delivery from the pMDI vs unprocessed control)	tertiary structures of insulin after processing ([2]; near-UV CD, peak around 275 nm, confirmed by fluorescence spectra)
OCc1cc(C(O)CNCCCCCCOCCCCc2ccccc2)ccc1O (stereo not shown) [SX, Salmeterol Xinafoate]	66 to 81 µg/mL	–	–	–
insulin	–	not chemically degraded	retained	retention
